According to patent US10005817 (EUMEDERIS PHARMACEUTICALS, dated 2018):
Non-standard residues stand in square brackets, D forms with d. No end group written: not given here. *: point of attachment. Dmt = Cc1cc(O)cc(C)c1C[C@H](N)C(=O)O; Tic = O=C(O)[C@@H]1Cc2ccccc2CN1; NHBn = c1ccc(CN*)cc1

Each binder was assayed against delta2 opioid receptor (assay: cell-based or functional assay).

Binder	DOP antagonist IC50 [nM]
H-[Dmt][Tic]FK(1'‑methyl β‑D‑glucuronyl)-NH2 [EU-A178]	< 0.1
H-[Dmt][Tic]FK(1'‑octyl β‑D‑glucuronyl)-NH2 [EU-A180]	< 0.1
[Dmt][Tic]FK(1‑methyl β‑D‑glucuronyl)-NHBn [EU-A620]	< 0.1
[Dmt][Tic]F[dK](1‑methyl β‑D‑glucuronyl)-NHBn [EU-A639]	< 0.1

The binders below were run against mu opioid receptor (assay: cell-based or functional assay).
Sequence of mu opioid receptor (P35372 whole entry): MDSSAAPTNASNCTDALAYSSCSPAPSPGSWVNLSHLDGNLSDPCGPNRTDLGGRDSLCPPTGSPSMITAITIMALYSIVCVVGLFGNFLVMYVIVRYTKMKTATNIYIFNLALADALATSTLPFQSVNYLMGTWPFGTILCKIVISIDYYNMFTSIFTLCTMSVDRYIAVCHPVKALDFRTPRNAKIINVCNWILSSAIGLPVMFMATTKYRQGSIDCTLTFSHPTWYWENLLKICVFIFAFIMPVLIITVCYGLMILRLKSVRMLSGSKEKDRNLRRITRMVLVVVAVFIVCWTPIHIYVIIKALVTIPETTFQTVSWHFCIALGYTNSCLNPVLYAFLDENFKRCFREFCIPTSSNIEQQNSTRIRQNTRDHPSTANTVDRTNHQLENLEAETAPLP

Binder	MOP agonist EC50 [nM]
H-[Dmt][Tic]FK(1'‑octyl β‑D‑glucuronyl)-NH2 [EU-A180]	36
[Dmt][Tic]FK(1‑methyl β‑D‑glucuronyl)-NHBn [EU-A620]	480
[Dmt][Tic]F[dK](1‑methyl β‑D‑glucuronyl)-NHBn [EU-A639]	280
